Bridges are numbered along the chain shown (N, C = ends). Where no end group is shown, it is not given here. The star is where a group is joined. Biotin = O=C1N[C@H]2[C@H](CS[C@H]2CCCCC(=O)*)N1
What was measured:
hCGRP(13-24) = target: T1, hCGRP(13-24) (human); experiment: BLI (Octet), biotin-peptide on SA probe
T1 construct: also called polypeptide 13-24
T1 peptide: Biotin-GGGGGAGLLSRSGGVVK
Description: (§1) The kinetic parameters of C245 Fab (Fab monomer fragments derived from antibody C245) binding to six synthetic human CGRP alpha polypeptide fragments (polypeptide 1-13, polypeptide 1-19, polypeptide 1-37, polypeptide 8-19, polypeptide 8-26, and polypeptide 13-24) were determined on an Octet RBD 96e system. Human CGRP synthetic polypeptide fragments were immobilized on the surfaces of SA bioprobes (Sartorius, Cat. No. 18-5019) at the following concentrations: 46.5 nM for hCGRP (1-13), 8.5 nM for CGRP (1-19), 15.5 nM for hCGRP (1-37), 8.5 nM for hCGRP (8-19), 15.5 nM for hCGRP (8-26), and 46.5 nM for hCGRP (13-24). The immobilized synthetic human CGRP polypeptide fragments were bound to 45 nM of C245 Fab and the binding dissociation curves were fitted using analytical software.

hCGRP(1-19) = target: T2, hCGRP(1-19) (human, N-terminal biotin; CYS residues at positions 7 and 12 theoretically form 1 intrachain disulfide bond); experiment: BLI (Octet), biotin-peptide on SA probe, 45 nM Fab
T2 construct: also called polypeptide 1-19
T2 peptide: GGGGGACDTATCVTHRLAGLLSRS
Description: as §1
(§2) The kinetic parameters of hu224 Fab (Fab monomer fragments derived from humanized antibody hu224) binding to four synthetic human CGRP alpha polypeptide fragments (polypeptide 1-13, polypeptide 1-19, polypeptide 1-37, and polypeptide 8-19) were determined on an Octet RBD 96e system. Human CGRP synthetic polypeptide fragments were immobilized on the surfaces of SA bioprobes (Sartorius, Cat. No. 18-5019) at the following concentrations: 8.5 nM for CGRP (1-19), 15.5 nM for hCGRP (1-37), 10 nM for hCGRP (8-19), and 15.5 nM for hCGRP (8-26). The immobilized synthetic human CGRP polypeptide fragments were bound to 45 nM of hu224 Fab and the binding dissociation curves were fitted using analytical software.

hCGRP(1-37) = target: T3, hCGRP(1-37) (human, N-terminal biotin; C-terminal phenylalanine amide (F-NH2); CYS residues at positions 7 and 12 theoretically form 1 intrachain disulfide bond); experiment: BLI (Octet), biotin-peptide on SA probe, 45 nM Fab
T3 construct: also called polypeptide 1-37; full-length hCGRP (1-37) polypeptide
T3 peptide: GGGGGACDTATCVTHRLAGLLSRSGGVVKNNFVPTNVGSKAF
Description: as §1, §2

hCGRP(8-26) = target: T4, hCGRP(8-26) (human, N-terminal biotin); experiment: BLI (Octet), biotin-peptide on SA probe, 45 nM Fab
T4 construct: also called polypeptide 8-26
T4 peptide: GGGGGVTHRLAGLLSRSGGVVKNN
Description: as §1, §2

hCGRP(1-13) [1] = target: T5, hCGRP(1-13) (human, disulfide 7-12); experiment: BLI (Octet), biotin-peptide on SA probe, 45 nM Fab
T5 construct: also called polypeptide 1-13
T5 peptide: Biotin-GGGGGACDTATCVTHRLA
Description: as §1, §2

hCGRP(8-19) = target: T6, hCGRP(8-19) (human); experiment: BLI (Octet), biotin-peptide on SA probe, 45 nM Fab
T6 construct: also called polypeptide 8-19
T6 peptide: Biotin-GGGGGVTHRLAGLLSRS
Description: as §1, §2

hCGRP(1-13) [2] = target: T5, hCGRP(1-13); experiment: BLI (Octet); hCGRP (1-13) against the fragments holding 8-19
Description: as §1

B1: C245 Fab (Fab, V domains shown)
VH: EVQLQQSGPELVKPGASMKISCKASGYSFTGYTMNWVKQSHGNNLEWIGLINPYIGNTHYNQKFKDKATFTVDRSSSTAYMALLSLTSEDSAVYYCARELDSGFDYWGQGTTLTVSS
VL: DVLMTQTPLSLPVSLGDQASLSCRSSQNIVHSNGDTYLEWYLQKPGQSPKLLIYKVSNRFSGVPDRFSGSGSGTDFTLKISRVEAEDLGVYYCYQGSHVPWTFGGGTKLEIK
notes: Fab of chimeric C245; also called Fab monomer fragments derived from antibody C245
For B1, the binding result (hCGRP(13-24)) was “no binding (tested: 45 nM)”, the Kd (hCGRP(1-19)) was 72.1 pM and the koff (hCGRP(1-19)) was 2.58e-05 s⁻¹. It also gave a kon (hCGRP(1-19)) of 357000 M⁻¹ s⁻¹, a Kd (hCGRP(1-37)) of 249 pM and a koff (hCGRP(1-37)) of 6.95e-05 s⁻¹. The kon (hCGRP(1-37)) was 280000 M⁻¹ s⁻¹, the Kd (hCGRP(8-26)) was 952 pM and the koff (hCGRP(8-26)) was 0.000316 s⁻¹. It also gave a kon (hCGRP(8-26)) of 332000 M⁻¹ s⁻¹, a Kd (hCGRP(1-13) [1]) of 24400 pM and a koff (hCGRP(1-13) [1]) of 0.0172 s⁻¹. The kon (hCGRP(1-13) [1]) was 704000 M⁻¹ s⁻¹, the Kd (hCGRP(8-19)) was 252 pM and the koff (hCGRP(8-19)) was 9.32e-05 s⁻¹. For the same binder, the kon (hCGRP(8-19)) was 360000 M⁻¹ s⁻¹ and the “fold decrease in affinity” value (hCGRP(1-13) [2]) was 100 fold.

Source: patent US20260125454A1 (SHANGHAI JUNSHI BIOSCIENCES, published 2026)
